For data set [1], the target named is T1, ZNFN3A1 (SMYD3) (Homo sapiens, UniProt Q9H7B4 SEQ:1-428).
T1 chain: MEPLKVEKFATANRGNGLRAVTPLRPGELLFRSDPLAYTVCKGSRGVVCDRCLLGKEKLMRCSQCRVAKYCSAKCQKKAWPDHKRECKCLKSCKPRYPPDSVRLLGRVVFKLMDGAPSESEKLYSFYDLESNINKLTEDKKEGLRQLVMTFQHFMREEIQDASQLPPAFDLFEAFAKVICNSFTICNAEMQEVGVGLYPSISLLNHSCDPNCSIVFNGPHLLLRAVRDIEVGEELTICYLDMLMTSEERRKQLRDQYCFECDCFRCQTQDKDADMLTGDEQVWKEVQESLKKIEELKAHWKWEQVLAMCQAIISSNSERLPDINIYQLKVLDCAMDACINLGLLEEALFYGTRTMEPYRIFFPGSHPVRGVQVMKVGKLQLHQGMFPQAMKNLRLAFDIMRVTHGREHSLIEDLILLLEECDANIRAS
The experiment in a line: specificity control. As to conditions: tags: GST fusion, E. coli.

The target in the next data set is GST (UniProt P08515 P08515:1-218). The experiment in a line: GST control.
GST, sequence (P08515 whole entry, the tested form may be a part, one chain of several): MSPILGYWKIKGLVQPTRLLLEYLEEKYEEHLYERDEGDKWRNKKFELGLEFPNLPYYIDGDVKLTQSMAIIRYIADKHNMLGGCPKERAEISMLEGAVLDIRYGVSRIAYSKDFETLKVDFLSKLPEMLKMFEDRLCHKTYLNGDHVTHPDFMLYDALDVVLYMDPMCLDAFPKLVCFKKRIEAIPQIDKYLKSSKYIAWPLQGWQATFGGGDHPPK
Another data set deals with Tcf4 wild-type (UniProt Q9NQB0 Q9NQB0:1-619). The experiment in a line: positive control. As to conditions: tags: GST fusion.
Tcf4 wild-type, sequence (Q9NQB0 whole entry, the tested form may be a part, one chain of several): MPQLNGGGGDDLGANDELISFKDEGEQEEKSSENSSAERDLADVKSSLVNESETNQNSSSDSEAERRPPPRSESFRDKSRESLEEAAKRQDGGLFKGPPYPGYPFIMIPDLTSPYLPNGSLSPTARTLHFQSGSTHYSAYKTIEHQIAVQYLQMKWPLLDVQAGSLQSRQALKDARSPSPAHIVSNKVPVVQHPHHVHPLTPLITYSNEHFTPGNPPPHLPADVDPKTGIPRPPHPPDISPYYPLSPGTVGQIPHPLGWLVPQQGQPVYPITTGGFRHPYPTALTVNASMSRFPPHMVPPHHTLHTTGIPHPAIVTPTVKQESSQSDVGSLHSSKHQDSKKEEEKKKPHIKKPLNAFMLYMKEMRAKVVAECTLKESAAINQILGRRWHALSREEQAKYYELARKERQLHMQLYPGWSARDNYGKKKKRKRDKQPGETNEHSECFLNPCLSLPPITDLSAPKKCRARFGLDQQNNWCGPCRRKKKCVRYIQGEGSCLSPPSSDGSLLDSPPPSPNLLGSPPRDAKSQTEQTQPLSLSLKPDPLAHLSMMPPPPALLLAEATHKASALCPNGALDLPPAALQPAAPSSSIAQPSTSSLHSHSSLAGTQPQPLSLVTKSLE
Data set [2] deals with T1, ZNFN3A1 (SMYD3). Description: in vitro binding assay; inhibited by cold competitor DNA. The settings on record: tags: GST fusion, E. coli.

The source of these data is patent US8221993, “Methods of detecting methyl transferase activity and methods of screening for methyl transferase activity modulators” (Onco Therapy Science, Inc.).

B1: wtTBM (Tcf4-binding motif) (dsDNA)
DNA 1: CCCTTTGATCTTACC
DNA 2: GGTAAGATCAAAGGG
Take B1: the binding result with ZNFN3A1 (SMYD3) [1] is recorded as “no binding”; with GST it was “no binding”; with Tcf4 wild-type, “binds”.

B2: ZBE2 (Nkx2.8 ZNFN3A1-binding element) (dsDNA)
DNA 1: TTACGCCCTCCTGAAACTTGTCATCCTGAATCTTAGAGGGGCCC
DNA 2: GGGCCCCTCTAAGATTCAGGATGACAAGTTTCAGGAGGGCGTAA
Take B2: the values for the binding result in the data set with GST and with ZNFN3A1 (SMYD3) [2] were “no binding” and “binds”, respectively.
